Two molecules from US8097254 can be followed below.

The target of one assay is hen egg lysozyme (hen) (UniProt P00698). The experiment in a line: 125I-labelled (Iodogen) scFv loaded on antigen column, counting of flow-through and eluate.
Assay [1] deals with T1, recombinant ED-B domain of fibronectin (UniProt P02751 1266-1356, biotinylated (biotin disulfide N-hydroxysuccinimide ester) in ELISA and ECL competition; Cy5 at the N-terminal extremity in the band-shift analysis).
T1 construct: domain: ED-B; Recombinant fragment made as in Carnemolla et al. 1996; also called biotinylated ED-B; ED-B-biotin
The experiment in a line: SPR (BIAcore), purified scFv. Background: SPR reads the build-up and loss of mass on a sensor chip optically.

Assay [2] deals with T1, recombinant ED-B domain of fibronectin. The experiment in a line: SPR (BIAcore).
The target is the same in assay [3]. The experiment in a line: Kd = koff/kon, koff from ECL competition, kon from BIAcore.
The target is the same in assay [4]. Nature of the assay: competition of scFv-(ED-B-biotin) complex with excess unbiotinylated ED-B, electrochemiluminescent detection (Origen).

T1 sequence (P02751 1266-1356 limits assumed): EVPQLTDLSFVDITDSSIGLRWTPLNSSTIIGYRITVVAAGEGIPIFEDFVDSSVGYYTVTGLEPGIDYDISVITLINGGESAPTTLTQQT
Sequence of hen egg lysozyme (hen) (P00698 19-147): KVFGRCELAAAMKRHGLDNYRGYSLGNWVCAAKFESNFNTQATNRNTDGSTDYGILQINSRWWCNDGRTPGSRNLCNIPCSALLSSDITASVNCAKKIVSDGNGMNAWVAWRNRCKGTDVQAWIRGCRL

scFv(D1.3) gave an immunoreactivity in the assay with hen egg lysozyme (hen) of over 80%.

B1: scFv L19 (high-affinity anti-ED-B human scFv antibody fragment) (scFv)
chain: EVQLLESGGGLVQPGGSLRLSCAASGFTFSSFSMSWVRQAPGKGLEWVSSISGSSGTTYYADSVKGRFTISRDNSKNTLYLQMNSLRAEDTAVYYCAKPFPYFDYWGQGTLVTVSSGDGSSGGSGGASTGEIVLTQSPGTLSLSPGERATLSCRASQSVSSSYLAWYQQKPGQAPRLLIYYASSRATGIPDRFSGSGSGTDFTLTISRLEPEDFAVYYCQQTGRIPPTFGQGTKVEIKDDDSDDDYKDDDDKHHHHHH
modifications: in some assays labelled: iodine-125 (Iodogen, or via N-succinimidyl-3-(125I)-benzoate), astatine-211 via m-MeATE, Cy5-NHS, tin (IV) chlorin e6
As to B1, the on-rate (kon) in assay [1] was 110000 M⁻¹ s⁻¹. Further, the koff turned out to be 9.6e-05 s⁻¹ in assay [2] and 6e-06 s⁻¹ in assay [4]. In addition, the Kd in assay [3] came out at 54 pM.

A word on the kon: it is the rate constant with which the complex forms. Usually koff stands for the rate constant with which the complex falls apart. What is called Kd is the equilibrium constant for the complex coming apart.
